# Measurements published in patent US20220002423A1 (GENERAL HOSPITAL, published 2022).
# T1: Amino acid residues 108-127 of human TNFR2 (human)
# T1 sequence (peptide): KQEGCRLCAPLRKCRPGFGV
# T2: Amino acid residues 106-125 of human TNFR2 (human)
# T2 sequence (peptide): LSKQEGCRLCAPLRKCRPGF
# T3: Amino acid residues 26-45 of human TNFR2 (human)
# T3 sequence (peptide): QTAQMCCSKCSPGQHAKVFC
# T4: Amino acid residues 122-141 of human TNFR2 (human)
# T4 peptide: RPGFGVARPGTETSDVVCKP
# T5: Amino acid residues 146-165 of human TNFR2 (human)
# T5 peptide: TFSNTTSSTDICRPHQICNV
# T6: Amino acid residues 162-181 of human TNFR2 (human)
# T6 peptide: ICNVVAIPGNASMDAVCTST
# T7: Amino acid residues 114-133 of human TNFR2 (human)
# T7 peptide: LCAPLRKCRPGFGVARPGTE
# T8: Amino acid residues 130-149 of human TNFR2 (human)
# T8 peptide: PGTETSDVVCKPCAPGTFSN
# T9: Amino acid residues 82-101 of human TNFR2 (human)
# T9 peptide: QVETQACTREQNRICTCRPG
# T10: Amino acid residues 154-174 of human TNFR2 (human)
# T10 peptide: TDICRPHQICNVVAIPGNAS
# T11: Amino acid residues 138-157 of human TNFR2 (human)
# T11 peptide: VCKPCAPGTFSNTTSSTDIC
# T12: Amino acid residues 1-20 of human TNFR2 (human)
# T12 construct: 20-mer fragment
# T12 peptide: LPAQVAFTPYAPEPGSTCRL
# T13: Amino acid residues 66-85 of human TNFR2 (human)
# T13 peptide: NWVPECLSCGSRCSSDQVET
# T14: Amino acid residues 74-93 of human TNFR2 (human)
# T14 peptide: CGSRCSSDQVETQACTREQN
# T15: Amino acid residues 34-53 of human TNFR2 (human)
# T15 sequence (peptide): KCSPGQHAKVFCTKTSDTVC
# T16: Amino acid residues 98-117 of human TNFR2 (human)
# T16 sequence (peptide): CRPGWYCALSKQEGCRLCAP
# T17: Amino acid residues 170-189 of human TNFR2 (human)
# T17 peptide: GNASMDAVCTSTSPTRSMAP
# T18: Amino acid residues 58-77 of human TNFR2 (human)
# T18 peptide: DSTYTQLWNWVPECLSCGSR
# T19: Amino acid residues 17-36 of human TNFR2 (human)
# T19 peptide: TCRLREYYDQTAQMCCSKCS
# T20: TNFR2, hTNFR2 (23-207), 20kD (human, UniProt P20333)
# T20 construct: fragment 23-207, 20kD (so in the source)
# T20 sequence (receptor fragment, looked up): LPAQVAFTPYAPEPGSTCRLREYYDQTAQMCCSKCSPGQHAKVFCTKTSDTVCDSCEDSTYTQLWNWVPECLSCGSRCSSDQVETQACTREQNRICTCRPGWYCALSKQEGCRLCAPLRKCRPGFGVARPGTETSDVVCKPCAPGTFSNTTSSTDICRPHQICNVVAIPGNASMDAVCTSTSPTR
# T21: Amino acid residues 50-69 of human TNFR2 (human)
# T21 peptide: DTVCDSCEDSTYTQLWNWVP
# B1: agonistic TNFR2 antibody TNFRAG1 (antibody, V domains shown)
# VH: EVQLQQFGAELVKPGASVKISCKASGYTFTDYNIDWVKQSHGKSLEWIGDINPNYDSTSYSQKFRGKATLTVDKSSSTAYMELRSLTSEDTAVYYCARGNSWYFDVWGAGTTVTVSS
# VL: QIVLTQSPALMSASPGEKVTMTCSASSSVRYMYWYQQKPRSSPKPWIYLTSNLASGVPARFSGSGSGTSYSLTISSMEAEDAATYYCQQWSSNPLTFGAGTKLELK
# notes: the primary antibodies were detected with secondary antibodies against rodent IgG; also called monoclonal TNFR2 antibody TNFRAG1; TNFR2 agonist antibody
# Key:
# [1] = target: T1, Amino acid residues 108-127 of human TNFR2 (human); test: ELISA, coated linear peptides 1 µg/well, antibody 0.1 µg/well
# [2] = target: T2, Amino acid residues 106-125 of human TNFR2 (human); test: as above
# [3] = target: T3, Amino acid residues 26-45 of human TNFR2 (human); test: as above
# [4] = target: T4, Amino acid residues 122-141 of human …; test: ELISA, coated linear peptides 1 µg/well
# Description: (§1) ELISA was also used to determine linear epitopes present on the extracellular surface of TNFR2. Linear peptides corresponding to various regions within the TNFR2 primary sequence were purchased from GenScript (Piscataway, N.J.), diluted in coating buffer and placed on Immulon 4HBX Flat Bottom Microtiter Plates (Thermo Scientific) at a concentration of 1 μg/well. Primary TNFR2 agonistic antibodies (0.1 μg/well) were incubated with substrates. Secondary antibodies against rodent IgG were used to detect the primary antibodies. Absorbance was measured using the SPECTRAMAX® 190 Absorbance Plate Reader and analyzed with SoftMax Pro 6.3 (Molecular Devices).
# [5] = target: T5, Amino acid residues 146-165 of human …; test: ELISA, coated linear peptides 1 µg/well
# Description: as §1
# [6] = target: T6, Amino acid residues 162-181 of human …; test: ELISA, coated linear peptides 1 µg/well
# Description: as §1
# [7] = target: T7, Amino acid residues 114-133 of human …; test: ELISA, coated linear peptides 1 µg/well
# Description: as §1
# [8] = target: T8, Amino acid residues 130-149 of human …; test: ELISA, coated linear peptides 1 µg/well
# Description: as §1
# [9] = target: T9, Amino acid residues 82-101 of human …; test: ELISA, coated linear peptides 1 µg/well
# Description: as §1
# [10] = target: T10, Amino acid residues 154-174 of human …; test: ELISA, coated linear peptides 1 µg/well
# Description: as §1
# [11] = target: T11, Amino acid residues 138-157 of human …; test: ELISA, coated linear peptides 1 µg/well
# Description: as §1
# [12] = target: T12, Amino acid residues 1-20 of human TNFR2; test: ELISA, coated linear peptides 1 µg/well
# Description: as §1
# [13] = target: T13, Amino acid residues 66-85 of human TNFR2; test: ELISA, antibody with TNFα added
# [14] = target: T14, Amino acid residues 74-93 of human TNFR2; test: ELISA, antibody with TNFα added
# [15] = target: T15, Amino acid residues 34-53 of human TNFR2 (human); test: ELISA, antibody alone
# [16] = target: T2, Amino acid residues 106-125 of human TNFR2 (human); test: ELISA, antibody alone
# [17] = target: T16, Amino acid residues 98-117 of human TNFR2 (human); test: ELISA, antibody alone
# [18] = target: T3, Amino acid residues 26-45 of human TNFR2 (human); test: ELISA, antibody alone
# [19] = target: T17, Amino acid residues 170-189 of human …; test: ELISA, antibody alone
# [20] = target: T13, Amino acid residues 66-85 of human TNFR2; test: ELISA, antibody alone
# [21] = target: T18, Amino acid residues 58-77 of human TNFR2; test: ELISA, antibody alone
# [22] = target: T19, Amino acid residues 17-36 of human TNFR2; test: ELISA, antibody alone
# [23] = target: T20, TNFR2, hTNFR2 (23-207), 20kD; test: ELISA, antibody alone
# [24] = target: T21, Amino acid residues 50-69 of human TNFR2; test: ELISA, antibody alone
binder,measurement,setting,value
B1,Affinity,[1],2
same,Reading,[1],0
same,Affinity,[2],2
same,Reading,[2],0
same,Affinity,[3],1
same,Reading,[3],0
same,binding result,[4],no binding (tested: 0.1 µg/well)
same,binding result,[5],no binding (tested: 0.1 µg/well)
same,binding result,[6],no binding (tested: 0.1 µg/well)
same,binding result,[7],no binding (tested: 0.1 µg/well)
same,binding result,[8],no binding (tested: 0.1 µg/well)
same,binding result,[9],no binding (tested: 0.1 µg/well)
same,binding result,[10],no binding (tested: 0.1 µg/well)
same,binding result,[11],no binding (tested: 0.1 µg/well)
same,binding result,[12],no binding (tested: 0.1 µg/well)
same,binding result,[13],no binding
same,binding result,[14],no binding
same,Affinity,[15],1
same,Reading,[16],2
same,Affinity,[17],1
same,Reading,[17],2
same,Affinity,[18],1
same,Reading,[18],0.1
same,binding result,[19],no binding
same,Reading,[20],2
same,binding result,[21],no binding
same,binding result,[22],no binding
same,Reading,[23],1.2
same,binding result,[24],no binding
